Where “and” joins values, the source holds several entries; their conditions need not be identical. Equal values may be shown once.
Key:
[1] = system: B-cells (CD19+), human splenocytes; experiment: Siglec-Fc binding to splenocytes, flow cytometry; format: cell-based; details: Suppl Fig 12; three replicate columns
Description: (§1) For human splenocytes, the sample was homogenized in media through a 40 µm filter (Corning) under sterile conditions. Samples were centrifuged at 300 rcf for 5 min. The resulting pellet from the spleen sample and whole human blood were treated with RBC lysis buffer (7 min) and centrifuged at 300 rcf and the RBC lysis was repeated twice more until no RBC remained in the pellet. Samples were treated with human Fc-receptor blocking agent (TruStain FX, Biolegend) in flow buffer (HBSS, 0.1% BSA, 5 mM EDTA). For analysis, the following cocktail was used: hSig8 (PerCP/Cy5.5, clone 7C9, Biolegend cat. no. 347108, 1:200), hCD123 (PE/Cy7, clone 6H6, Biolegend cat. no. 306010, 1:200), hCD19 (PE, clone SJ25C1, Biolegend cat. no. 363004, 1:200), hCD3 (FITC, BD Pharmingen cat. no. 555332, 1:50), hCD14 (BV605, clone M5E2, BD Horizon cat. no. 564056, 1:200), hCD15 (BUV395, clone HI98, BD Horizon cat. no. 563872, 1:200), hCD56 (BV510, clone NCAM16.2, BD Horizon cat. no. 563041, 1:200). For human peripheral blood samples, we additionally used hHLA-DR (APC-Cy7, clone L243, Biolegend cat. no. 307618, 1:200). Pre-complexed Siglec-Fc/Strep-Tactin-AF647 (described above) was added to the antibody cocktail, added to cells, and allowed to stain at 4 °C for 45 min. The cells were then centrifuged at 300 rcf for 5 min and resuspended in flow buffer containing 1 µg/mL propidium iodide prior to analysis by flow cytometry.
(§2) Flow cytometry was performed on a BD LSRFortessa™ X-20 cell analyzer using BD FACSDiva Software Version 8.0.1 and data was processed using FlowJo LLC. Version 9.9.6 and Graphpad Prism 8. The live, single cell populations were gated out with two gates to obtain the median fluorescence intensity (MFI), which indicates binding of the Siglec-Fc-secondary complex to the cell surface. Control cells that were incubated with Strep-Tactin-AF647 (0.55 μg/mL, 0.57 pmol) was used to determine the baseline fluorescence. Number of cells (# cells) plotted indicates percentage of max (% max).

[2] = system: T-cells (CD3+), human splenocytes; experiment: Siglec-Fc binding to splenocytes, flow cytometry; format: cell-based; details: Suppl Fig 12; three replicate columns
Description: as §1, §2

[3] = system: monocytes (CD14+), human splenocytes; experiment: Siglec-Fc binding to splenocytes, flow cytometry; format: cell-based; details: Suppl Fig 12; three replicate columns
Description: as §1, §2

[4] = system: NK cells (CD56+), human splenocytes; experiment: Siglec-Fc binding to splenocytes, flow cytometry; format: cell-based; details: Suppl Fig 12; three replicate columns
Description: as §1, §2

[5] = system: BT549; experiment: Flow cytometry, pre-complexed Siglec-Fc binding to breast cancer cell line; format: cell-based; details: Strep-Tactin-AF647, replicates
Description: (§3) Strep-Tactin-AF647 (0.55 μg/mL, 0.57 pmol), streptavidin (Biolegend), or anti-human igG1 (Biolegend) was added to Siglec supernatant (50 μL) or purified Siglec and allowed to sit at 4 °C for 15 min. After, the pre-complexed solution was added to cells in a 96-well U-bottom plate for 30 min at 4 °C. After, 200 μL of flow buffer (HBSS, 0.1% BSA, 5 mM EDTA) was added and the plate was spun down at 300 rcf for 5 min. The cells were resuspended in 200 μL of flow buffer and processed through the flow cytometer.
as §2

[6] = system: ZR-75-1; experiment: as above; format: cell-based; details: Strep-Tactin-AF647, replicates
Description: as §3, §2

[7] = system: MCF7; experiment: as above; format: cell-based; details: Strep-Tactin-AF647, replicates
Description: as §3, §2

[8] = system: T47D; experiment: as above; format: cell-based; details: Strep-Tactin-AF647, replicates
Description: as §3, §2

[9] = system: MDA-MB-468; experiment: as above; format: cell-based; details: Strep-Tactin-AF647, replicates
Description: as §3, §2

[10] = system: HS578T; experiment: as above; format: cell-based; details: Strep-Tactin-AF647, replicates
Description: as §3, §2

[11] = system: MDA-MB-231; experiment: as above; format: cell-based; details: Strep-Tactin-AF647, replicates
Description: as §3, §2

[12] = system: U937 cells; experiment: Flow cytometry, Siglec-Fc pre-complexed with Strep-Tactin, streptavidin or anti-human IgG1; format: cell-based; details: U937; Strep-Tactin-AF647; replicates, Fig. 2
Description: as §3, §2

[13] = system: B-cells (CD19+); experiment: Siglec ligands on peripheral blood immune cells, flow cytometry; format: cell-based, human; details: replicate values
Description: as §1, §2

[14] = system: T-cells (CD3+); experiment: as above; format: cell-based, human; details: replicate values
Description: as §1, §2

[15] = system: NK cells (CD56+); experiment: as above; format: cell-based, human; details: replicate values
Description: as §1, §2

[16] = system: neutrophils (CD15+); experiment: as above; format: cell-based, human; details: replicate values
Description: as §1, §2

[17] = system: cDCs (CD123dim/HLA-DR+); experiment: as above; format: cell-based, human; details: cDC; replicate values
Description: as §1, §2

[18] = system: pDCs (CD123high/HLA-DR+); experiment: as above; format: cell-based, human; details: pDC; replicate values
Description: as §1, §2

[19] = system: neutrophils (CD15+), human splenocytes; experiment: Siglec-Fc (CD22-Fc V1/V2, with or without Fc receptor block) binding to splenocytes, flow cytometry; format: cell-based; details: Suppl Fig 12; three replicate columns
Description: as §1, §2

[20] = system: A549 cells; experiment: Flow cytometry, pre-complexed Siglec-Fc binding; format: cell-based; details: Strep-Tactin-AF647, replicates
Description: as §3, §2

[21] = system: Jurkat cells; experiment: Flow cytometry, pre-complexed Siglec-Fc binding; format: cell-based; details: Strep-Tactin-AF647, replicates
Description: as §3, §2

[22] = system: K562 cells; experiment: Flow cytometry, pre-complexed Siglec-Fc binding; format: cell-based; details: Strep-Tactin-AF647, replicates
Description: as §3, §2

[23] = system: HEK293T cells; experiment: Flow cytometry, pre-complexed Siglec-Fc binding; format: cell-based; details: HEK; Strep-Tactin-AF647; replicates
Description: as §3, §2

[24] = system: HuH7 cells; experiment: Flow cytometry, pre-complexed Siglec-Fc binding; format: cell-based; details: Strep-Tactin-AF647, replicates
Description: as §3, §2

[25] = system: basophils (CCR3+); experiment: Siglec ligands on peripheral blood immune cells, flow cytometry; format: cell-based, human; parameters: key: median fluorescence intensity (MFI) of Siglec-Fc complex binding; details: replicate values
Description: (§4) Siglec supernatant (50 μL) or purified Siglec was incubated with cells in a 96-well U-bottom plate for 30 min at 4 °C. Following the incubation, 200 μL of flow buffer (HBSS, 0.1% BSA, 5 mM EDTA) was added and the plate was spun down at 300 rcf for 5 min. Strep-Tactin-AF647 (0.55 μg/mL, 50 μL, 0.57 pmol), streptavidin (Biolegend), or anti-human IgG1 (Biolegend) was added to the cells and incubated for 30 min at 4 °C. After, 200 μL of flow buffer (HBSS, 0.1% BSA, 5 mM EDTA) was added and the plate was spun down at 300 rcf for 5 min. The cells were resuspended in 200 μL of flow buffer and processed through the flow cytometer.
as §3, §1, §2

[26] = system: monocytes (CD14+); experiment: as above; format: cell-based, human; parameters: key: median fluorescence intensity (MFI) of Siglec-Fc complex binding; details: replicate values
Description: as §4, §3, §1, §2

[27] = system: eosinophils (Siglec-8+); experiment: as above; format: cell-based, human; parameters: key: median fluorescence intensity (MFI) of Siglec-Fc complex binding; details: replicate values
Description: as §4, §3, §1, §2

B1: Sig-16 R120A: Siglec-16-Fc essential arginine mutant (protein, UniProt A6NMB1 17-434, looked up, variant R120A)
extracellular domain: NKDPSYSLQVQRQVPVPEGLCVIVSCNLSYPRDGWDESTAAYGYWFKGRTSPKTGAPVATNNQSREVAMSTRDRFQLTGDPGKGSCSLVIRDAQREDEAWYFFAVERGSRVRHSFLSNAFFLKVTALTQKPDVYIPETLEPGQPVTVICVFNWAFKKCPAPSFSWTGAALSPRRTRPSTSHFSVLSFTPSPQDHDTDLTCHVDFSRKGVSAQRTVRLRVASLELQGNVIYLEVQKGQFLRLLCAADSQPPATLSWVLQDRVLSSSHPWGPRTLGLELPGVKAGDSGRYTCRAENRLGSQQRALDLSVQYPPENLRVMVSQANRTVLENLRNGTSLRVLEGQSLRLVCVTHSSPPARLSWTWGEQTVGPSQPSDPGVLQLPRVQMEHEGEFTCHARHPLGSQRVSLSFSVHCKSGPMTG
modifications: extracellular domain fused to human IgG1 Fc
notes: Siglec-16-Fc essential arginine mutant
Binding, B-cells [1]: 9.76 and 13.2 and 11.5 | Binding, T-cells [2]: -5.17 and -4.02 and -2.3 | Binding, Monocytes [3]: 17.2 and 15.5 and 13.2 | Binding, NK [4]: -1.72 and -0.57 and 2.3 | binding of pre-complexed Siglec-Fc (MFI) [5]: 124 and 130 and 128 | binding of pre-complexed Siglec-Fc (MFI) [6]: 171 and 183 and 144 | binding of pre-complexed Siglec-Fc (MFI) [7]: 102 | binding of pre-complexed Siglec-Fc (MFI) [8]: 75.5 and 80.8 and 81.8 | binding of pre-complexed Siglec-Fc (MFI) [9]: 81.8 and 84.5 and 83.4 | binding of pre-complexed Siglec-Fc (MFI) [10]: 116 and 119 and 110 | binding of pre-complexed Siglec-Fc (MFI) [11]: 111 and 118 and 117 | binding of pre-complexed Siglec-Fc (MFI) [12]: 90.2 and 97.8 and 102 | Siglec-Fc binding (Figure 3d) [13]: 32.1 and 52.6 and -2.57 | Siglec-Fc binding (Figure 3d) [14]: 25.7 and 12.5 and 15.5 | Siglec-Fc binding (Figure 3d) [15]: 38.5 and 45.7 and 13.8 | Siglec-Fc binding (Figure 3d) [16]: 44.9 and 39.4 and 8.1 | Siglec-Fc binding (Figure 3d) [17]: 66.8 and -25.7 and 30.8 | Siglec-Fc binding (Figure 3d) [18]: 74.5 and -8.98 and 57.8 | Binding, Neutrophils [19]: 16.1 and 20.7 and 14.4 | binding of pre-complexed Siglec-Fc (MFI) [20]: 103 (2×) and 108 | binding of pre-complexed Siglec-Fc (MFI) [21]: 74.2 and 80.5 and 83 | binding of pre-complexed Siglec-Fc (MFI) [22]: 80.4 and 84.2 and 88.7 | binding of pre-complexed Siglec-Fc (MFI) [23]: 70.6 and 77.5 and 78.9 | binding of pre-complexed Siglec-Fc (MFI) [24]: 131 and 130 and 128 | Siglec-Fc binding (Figure 3d) [25]: 82.2 and 51.9 and 97 | Siglec-Fc binding (Figure 3d) [26]: 46.2 and 59 and 12.8 | Siglec-Fc binding (Figure 3d) [27]: 41.1 and 56.9 and 14.4

Reference: paper PMC7547722, “A versatile soluble siglec scaffold for sensitive and quantitative detection of glycan ligands” (Nature Communications, 2020)
